No end group written: not given here.
How the values were obtained:
[1] = target: HLA-DQ8 (DQA1*03:01/DQB1*03:02) (Homo sapiens, UniProt P01909+P01920, A209T/A45G/C70Q/D89A/DUP78-78/E183D/E77G/F237L/G63E/H199R/I129T/K197E/L178F/L74F/L98V/Q57E/Q76R/S185I/S97I/T217I/T49S/V73L/Y58L); assay: Competitive ELISA HLA class II peptide-binding assay, DQ8
[2] = target: HLA-DQ2 (DQA1*05:01/DQB1*02:01) (Homo sapiens, UniProt P01909+P01920, A45G/A70V/D89A/E106A/E77G/E98D/H199R/L107V/N214S/P84L/P87L/T103K/T109R/T172A/T60S/V78E/V99I/Y58L/Y62S/Y69I/Y79F); assay: Competitive ELISA HLA class II peptide-binding assay, DQ2
[3] = target: HLA-DR4 (DRB1*04:01) (Homo sapiens, UniProt P01903+P01911, A100K/A169T/F76Y/I96L/K127E/L162R/M171V/N62H/P40V/Q125Y/R42H/S133A/S149N/S66Y/V115G/V209L/W38E); assay: Competitive ELISA HLA class II peptide-binding assay, DRB1*04:01
[4] = target: HLA-DR3 (DRB1*03:01) (Homo sapiens, UniProt P01903+P01911, A100K/A102G/A103R/A169T/F55Y/I96L/K41T/L162R/M171V/P40S/Q125H/Q178H/Q39Y/R42S/S66N/T106N/T262R/W38E/Y61H); assay: Competitive ELISA HLA class II peptide-binding assay, DRB1*03:01
[5] = target: HLA-DRB4 (DRB4*01:01) (Homo sapiens, UniProt P01903+P13762, G164S); assay: Competitive ELISA HLA class II peptide-binding assay, DRB4*01:01
[6] = target: T1, proinsulin (C-peptide) peptide on HLA-DRA*01:01 / HLA-DRB1*04:04 (human); assay: proliferation
T1 peptide: PLALEGSLQK

[7] = target: T2, proinsulin (C-peptide) peptide on HLA-DRA*01:01 / HLA-DRB1*04:04 (human); assay: proliferation
T2 peptide: PLALEGSLQ

[8] = target: T3, proinsulin (C-peptide) peptide on HLA-DRA*01:01 / HLA-DRB1*03:01 (human); assay: proliferation
T3 peptide: QPLALEGSLQKR

[9] = target: T4, proinsulin (C-peptide) peptide on HLA-DRA*01:01 / HLA-DRB1*04:01 (human); assay: proliferation
T4 peptide: SLQPLALEGSL

[10] = target: T5, proinsulin (B-chain) peptide on HLA-DQA1*05:01 / HLA-DQB1*02:01 (human); assay: proliferation
T5 peptide: VCGERGFFY

[11] = target: T6, proinsulin (C-peptide) peptide on HLA-DQA1*05:01 / HLA-DQB1*02:01 (human); assay: proliferation
T6 peptide: SLQPLALEGSLQ

[12] = target: T7, proinsulin (C-peptide) peptide on HLA-DQA1*03:01 / HLA-DQB1*03:02 (human); assay: proliferation
T7 peptide: GGPGAGSLQPL

[13] = target: T8, proinsulin (B-chain) peptide on HLA-DQA1*05:01 / HLA-DQB1*02:01 (human); assay: proliferation
T8 peptide: ALYLVCGERG

B14-28: overlapping proinsulin peptide (15-mer) (ALYLVCGERGFFYTP; UniProt P01308 38-52, looked up, fragment) [Peptide B14-28]
binding affinity to DQ8, in words [1]: moderate to high | binding affinity to DQ2, in words [2]: did not show detectable binding affinity

B11-25: overlapping proinsulin peptide (15-mer) (LVEALYLVCGERGFF; UniProt P01308 35-49, looked up, fragment) [Peptide B11-25]
binding affinity to DQ8, in words [1]: moderate to high | binding affinity to DQ2, in words [2]: moderate (binding ratio below 100 (moderate binding))

B17-C1: overlapping proinsulin peptide (15-mer) (LVCGERGFFYTPKTR; UniProt P01308 41-55, looked up, fragment) [Peptide B17-C1]
binding affinity to DQ2, in words [2]: did not show detectable binding affinity

C19-33: overlapping proinsulin peptide (15-mer) (GAGSLQPLALEGSLQ; UniProt P01308 73-87, looked up, fragment) [Peptide C19-33]
binding affinity to DQ8, in words [1]: moderate to high | binding affinity to DQ2, in words [2]: moderate (binding ratio below 100 (moderate binding)) | binding affinity to DRB1*04:01, in words [3]: abrogated | binding affinity to DRB1*03:01, in words [4]: abrogated

GIVEQCCTSICSLYQ [Peptide A1-15]
binding affinity to DQ8, in words [1]: moderate to high | binding affinity to DQ2, in words [2]: moderate to high

B20-C4: overlapping proinsulin peptide (15-mer) (GERGFFYTPKTRREA; UniProt P01308 44-58, looked up, fragment) [Peptide B20-C4]
binding affinity to DRB1*03:01, in words [4]: high (below 10 (high binding))

C16-30: overlapping proinsulin peptide (15-mer) (GGPGAGSLQPLALEG; UniProt P01308 70-84, looked up, fragment) [Peptide C16-30]
binding affinity to DQ8, in words [1]: did not show detectable binding affinity

C13-27: overlapping proinsulin peptide (15-mer) (ELGGGPGAGSLQPLA; UniProt P01308 67-81, looked up, fragment) [Peptide C13-27]
binding affinity to DQ8, in words [1]: did not show detectable binding affinity

CC[C@H](C)[C@H](NC(=O)[C@@H](NC(=O)[C@H](C)NC(=O)[C@H](CCCCN)NC(=O)[C@H](CC(=O)O)NC(=O)[C@@H](NC(=O)[C@H](CCC(=O)O)NC(=O)[C@@H](NC(=O)[C@H](C)NC(=O)[C@H](CC(C)C)NC(=O)[C@H](CC(C)C)NC(=O)[C@H](CC(=O)O)NC(=O)CNC(=O)[C@H](C)N)[C@@H](C)CC)[C@@H](C)O)[C@@H](C)O)C(=O)O [E2/E7]
IC50 [5]: 63 nM

ADVEVYRAVTPLGPPD [DQB45-57, reference compound]
IC50 [1]: 730 nM

B1: Clone 1 (TCR)
alpha TRAV41 TRAJ49 CDR3: CAASNTGNQFYF
beta TRBV14 TRBJ2-7 CDR3: CASSQALAGVAEQYF
binding result [6]: recognises

B2: Clone 2 (TCR)
alpha TRAV13-1 TRAJ17 CDR3: CAASSKAAGNKLTF
beta TRBV6-1 TRBJ1-2 CDR3: CASSMTQGLDYGYTF
binding result [7]: recognises

B3: Clone 3 (TCR)
alpha TRAV19 TRAJ49 CDR3: CALSDRTGNQFYF
beta TRBV9 TRBJ1-2 CDR3: CASRLSGTNIPPTYGYTF
binding result [6]: recognises

B4: Clone 11 (TCR)
alpha TRAV13-1 TRAJ47 CDR3: CAAMCKLVF
beta TRBV18 TRBJ1-2 CDR3: CASSPDRQGVEYTF
binding result [8]: recognises

B5: Clone 13 (TCR)
alpha TRAV17 TRAJ11 CDR3: CATALISGYSTLTF
beta TRBV12-3 TRBJ2-1 CDR3: CASRQQGVGYNEQFF
binding result [9]: recognises

B6: Clone 19 (TCR)
alpha TRAV29 TRAJ33 CDR3: CAASPSDSNYQLIW
beta TRBV7-2 TRBJ1-1 CDR3: CASSFRRGSMNTEAFF
binding result [10]: recognises

B7: Clone 22 (TCR)
alpha TRAV2 TRAJ8 CDR3: CAVEDHGTGFQKLVF
beta TRBV4-3 TRBJ2-3 CDR3: CASSQETGPTQYF
binding result [11]: recognises

B8: Clone 23 (TCR)
alpha TRAV12-3 TRAJ33 CDR3: CAMSARSNYQLIW
beta TRBV4-3 TRBJ2-3 CDR3: CASSKMGPRTDTQYF
binding result [12]: recognises

B9: Clone 24 (TCR)
alpha TRAV8-2 TRAJ20 CDR3: CAVSEAYKLSF
beta TRBV5-8 TRBJ2-5 CDR3: CASTEGIQETQYF
binding result [13]: recognises

Source: PMC9022012 (Journal of immunology (Baltimore, Md. : 1950), 2020)
